Results taken from the RNAGym collection of RNA variant scans (doi:10.7554/elife.90254).

B1: LINE1-mini (parent)
chain: GGCAGAGCUCAACACAGCGUGGCAAAGUGGCUGUGGCUAGACUGCC

Variants of: B1
Assay: self-cleavage, relative activity (ratio to wild type); higher = more cleavage; in vitro, sequencing; the parent is a self-cleaving ribozyme
Work on GGCAGAGCUCAACACAGCGUGGAAAAGUAGCUGUGGCUAGACUGCC [C23A G29A] yielded a self-cleavage of 0.91.
GGCAGAGCUCAACACAGCGUGGAAAAGUCGCUGUGGCUAGACUGCC [C23A G29C] gave a self-cleavage of 0.39.
With GGCAGAGCUCAACACAGCGUGGAAAAGUUGCUGUGGCUAGACUGCC [C23A G29U] the self-cleavage was 0.88.
In the case of GGCAGAGCUCAACACAGCGUGGGAAAGUGGCUGUGGCUAGACUGCG [C23G C46G], the self-cleavage is reported as 0.6.
In the case of GGCAGAGCUCAACACAGCGUGGGAAAGUGGCUGUGGCUAGACUGCU [C23G C46U], the self-cleavage is reported as 1.
Variant GGCAGAGCUCAACACAGCGUGGGAAAGUGGCUGUGGCUAGACUGCA [C23G C46A] has a self-cleavage of 1.07.
GGCAGAGCUCAACACAGCGUGGGAAAGUGGAUGUGGCUAGACUGCC [C23G C31A] showed a self-cleavage of 0.09.
Work on GGCAGAGCUCAACACAGCGUGGGAAAGUGGGUGUGGCUAGACUGCC [C23G C31G] yielded a self-cleavage of 0.07.
Variant GGCAGAGCUCAACACAGCGUGGGAAAGUGGUUGUGGCUAGACUGCC [C23G C31U] has a self-cleavage of 0.2.
GGCAGAGCUCAACACAGCGUGGGAAAAUGGCUGUGGCUAGACUGCC [C23G G27A] showed a self-cleavage of 0.95.
GGCAGAGCUCAACACAGCGUGGGAAACUGGCUGUGGCUAGACUGCC [C23G G27C] gave a self-cleavage of 0.27.
Variant GGCAGAGCUCAACACAGCGUGGGAAAUUGGCUGUGGCUAGACUGCC [C23G G27U] has a self-cleavage of 1.17.
GGCAGAGCUCAACACAGCGUGGAAAAGUGGCUUUGGCUAGACUGCC [C23A G33U] gave a self-cleavage of 0.2.
In the case of GGCAGAGCUCAACACAGCGUGGAAAAGUGGCUCUGGCUAGACUGCC [C23A G33C], the self-cleavage is reported as 0.05.
For GGCAGAGCUCAACACAGCGUGGAAAAGUGGCUAUGGCUAGACUGCC [C23A G33A], the self-cleavage was 0.78.
With GGCAGAGCUCAACACAGCGUGGGAAAGUGGCUGUGGCUAGGCUGCC [C23G A41G] the self-cleavage was 0.37.
Work on GGCAGAGCUCAACACAGCGUGGGAAAGUGGCUGUGGCUAGUCUGCC [C23G A41U] yielded a self-cleavage of 0.53.
For GGCAGAGCUCAACACAGCGUGGGAAAGUGGCUGUGGCUAGCCUGCC [C23G A41C], the self-cleavage was 0.04.
GGCAGAGCUCAACACAGCGUGGGAAAGUGGCUGUGGCUAAACUGCC [C23G G40A] showed a self-cleavage of 0.07.
In the case of GGCAGAGCUCAACACAGCGUGGGAAAGUGGCUGUGGCUACACUGCC [C23G G40C], the self-cleavage is reported as 0.13.
GGCAGAGCUCAACACAGCGUGGGAAAGUGGCUGUGGCUAUACUGCC [C23G G40U] showed a self-cleavage of 0.14.
GGCAGAGCUCAACACAGCGUGGAAAAGUGGCUGUUGCUAGACUGCC [C23A G35U] gave a self-cleavage of 0.22.
Variant GGCAGAGCUCAACACAGCGUGGAAAAGUGGCUGUCGCUAGACUGCC [C23A G35C] has a self-cleavage of 0.14.
In the case of GGCAGAGCUCAACACAGCGUGGAAAAGUGGCUGUAGCUAGACUGCC [C23A G35A], the self-cleavage is reported as 0.23.
With GGCAGAGCUCAACACAGCGUGGGAAAGUAGCUGUGGCUAGACUGCC [C23G G29A] the self-cleavage was 1.01.
In the case of GGCAGAGCUCAACACAGCGUGGGAAAGUCGCUGUGGCUAGACUGCC [C23G G29C], the self-cleavage is reported as 0.26.
Variant GGCAGAGCUCAACACAGCGUGGGAAAGUUGCUGUGGCUAGACUGCC [C23G G29U] has a self-cleavage of 0.47.
GGCAGAGCUCAACACAGCGUGGGAAAGUGGCUGUGGCUAGACUGUC [C23G C45U] gave a self-cleavage of 0.97.
Variant GGCAGAGCUCAACACAGCGUGGGAAAGUGGCUGUGGCUAGACUGGC [C23G C45G] has a self-cleavage of 0.77.
Work on GGCAGAGCUCAACACAGCGUGGGAAAGUGGCUGUGGCUAGACUGAC [C23G C45A] yielded a self-cleavage of 0.79.
GGCAGAGCUCAACACAGCGUGGGAUAGUGGCUGUGGCUAGACUGCC [C23G A25U] showed a self-cleavage of 0.72.
With GGCAGAGCUCAACACAGCGUGGGAGAGUGGCUGUGGCUAGACUGCC [C23G A25G] the self-cleavage was 1.
With GGCAGAGCUCAACACAGCGUGGGACAGUGGCUGUGGCUAGACUGCC [C23G A25C] the self-cleavage was 0.69.
GGCAGAGCUCAACACAGCGUGGGAAAGUGUCUGUGGCUAGACUGCC [C23G G30U] gave a self-cleavage of 0.75.
Variant GGCAGAGCUCAACACAGCGUGGGAAAGUGACUGUGGCUAGACUGCC [C23G G30A] has a self-cleavage of 1.88.
With GGCAGAGCUCAACACAGCGUGGGAAAGUGCCUGUGGCUAGACUGCC [C23G G30C] the self-cleavage was 2.06.
GGCAGAGCUCAACACAGCGUGGGAAAGUGGCUGUUGCUAGACUGCC [C23G G35U] showed a self-cleavage of 0.11.
GGCAGAGCUCAACACAGCGUGGGAAAGUGGCUGUAGCUAGACUGCC [C23G G35A] gave a self-cleavage of 0.14.
In the case of GGCAGAGCUCAACACAGCGUGGGAAAGUGGCUGUCGCUAGACUGCC [C23G G35C], the self-cleavage is reported as 0.12.
Variant GGCAGAGCUCAACACAGCGUGGGAAAGUGGCUUUGGCUAGACUGCC [C23G G33U] has a self-cleavage of 0.16.
Work on GGCAGAGCUCAACACAGCGUGGGAAAGUGGCUAUGGCUAGACUGCC [C23G G33A] yielded a self-cleavage of 0.32.
GGCAGAGCUCAACACAGCGUGGGAAAGUGGCUCUGGCUAGACUGCC [C23G G33C] showed a self-cleavage of 0.03.
In the case of GGCAGAGCUCAACACAGCGUGGGAAAGUGGCUGUGGCCAGACUGCC [C23G U38C], the self-cleavage is reported as 0.42.
Variant GGCAGAGCUCAACACAGCGUGGGAAAGUGGCUGUGGCAAGACUGCC [C23G U38A] has a self-cleavage of 0.32.
Work on GGCAGAGCUCAACACAGCGUGGGAAAGUGGCUGUGGCGAGACUGCC [C23G U38G] yielded a self-cleavage of 0.02.
With GGCAGAGCUCAACACAGCGUGGAAAAGUGGCUGUGGCUAGACUACC [C23A G44A] the self-cleavage was 0.61.
GGCAGAGCUCAACACAGCGUGGAAAAGUGGCUGUGGCUAGACUUCC [C23A G44U] showed a self-cleavage of 0.28.
For GGCAGAGCUCAACACAGCGUGGAAAAGUGGCUGUGGCUAGACUCCC [C23A G44C], the self-cleavage was 0.51.
In the case of GGCAGAGCUCAACACAGCGUGGAAAAGUGGCUGUGGCUAAACUGCC [C23A G40A], the self-cleavage is reported as 0.14.
Variant GGCAGAGCUCAACACAGCGUGGAAAAGUGGCUGUGGCUAUACUGCC [C23A G40U] has a self-cleavage of 0.14.
GGCAGAGCUCAACACAGCGUGGAAAAGUGGCUGUGGCUACACUGCC [C23A G40C] showed a self-cleavage of 0.15.
GGCAGAGCUCAACACAGCGUGGGAAAGUGGCUGUGGCUAGACUCCC [C23G G44C] showed a self-cleavage of 0.2.
In the case of GGCAGAGCUCAACACAGCGUGGGAAAGUGGCUGUGGCUAGACUACC [C23G G44A], the self-cleavage is reported as 0.41.
In the case of GGCAGAGCUCAACACAGCGUGGGAAAGUGGCUGUGGCUAGACUUCC [C23G G44U], the self-cleavage is reported as 0.16.
With GGCAGAGCUCAACACAGCGUGGAAAAGUGACUGUGGCUAGACUGCC [C23A G30A] the self-cleavage was 1.34.
Work on GGCAGAGCUCAACACAGCGUGGAAAAGUGUCUGUGGCUAGACUGCC [C23A G30U] yielded a self-cleavage of 1.16.
